Measurements published in patent US20160208004A1.
Where “and” joins values, the source holds several entries; their conditions need not be identical. Identical values can stand only once.

Experiments:
Experiment in all cases: cell-based or functional assay
human IL-17RA (human) = human IL-17RA (human) (UniProt Q96F46)
human IL-17RB (human) = human IL-17RB (human) (UniProt Q9NRM6)
human IL-25 (human) = human IL-25 (human) (UniProt Q9H293)
Chain of human IL-25 (human) (Q9H293 33-177 limits assumed): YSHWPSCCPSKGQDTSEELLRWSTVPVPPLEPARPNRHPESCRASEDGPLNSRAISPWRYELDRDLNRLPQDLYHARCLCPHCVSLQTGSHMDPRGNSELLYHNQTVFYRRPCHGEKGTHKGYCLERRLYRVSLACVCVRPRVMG

Chain of human IL-17RB (human) (Q9NRM6 18-502): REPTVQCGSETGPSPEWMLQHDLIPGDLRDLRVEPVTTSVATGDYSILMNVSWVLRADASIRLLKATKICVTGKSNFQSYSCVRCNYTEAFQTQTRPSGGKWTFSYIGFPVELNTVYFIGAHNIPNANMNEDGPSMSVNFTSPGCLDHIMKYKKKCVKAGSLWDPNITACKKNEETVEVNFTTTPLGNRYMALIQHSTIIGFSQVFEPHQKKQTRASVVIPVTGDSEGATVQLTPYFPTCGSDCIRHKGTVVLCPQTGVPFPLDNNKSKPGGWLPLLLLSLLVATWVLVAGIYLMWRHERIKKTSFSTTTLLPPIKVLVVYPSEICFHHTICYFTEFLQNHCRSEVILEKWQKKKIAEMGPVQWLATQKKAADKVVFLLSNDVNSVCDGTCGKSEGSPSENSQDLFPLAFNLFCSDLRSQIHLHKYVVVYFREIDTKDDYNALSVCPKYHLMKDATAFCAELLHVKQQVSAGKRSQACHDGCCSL

## MAB1771: anti-HuIL-17RA MuIgG2b (R&D Systems) (antibody)
Human IL-17RA (human)
  % Inhibition of IL-5 production, TSLP treated human PBMC + IL-2 + IL-25; inhibitor 10 micrograms/mL: 24% and 33%

## MAB1207: anti-HuIL-17RB MuIgG2b (R&D Systems) (antibody)
Human IL-17RB (human)
  % Inhibition of IL-5 production, TSLP treated human PBMC + IL-2 + IL-25; inhibitor 10 micrograms/mL: 13%

## HuIL-17RB: HIS (extracellular region of human IL-17RB fused to poly HIS) (from UniProt Q9NRM6 18-292) (receptor)
Human IL-25 (human)
  % Inhibition of IL-5 production, TSLP treated human PBMC + IL-2 + IL-25; inhibitor 10 micrograms/mL: 67%
